Laboratory results: patent US20080199467A1 (published 2008)

T1: S100b (UniProt P04271 2-92)
T1 chain: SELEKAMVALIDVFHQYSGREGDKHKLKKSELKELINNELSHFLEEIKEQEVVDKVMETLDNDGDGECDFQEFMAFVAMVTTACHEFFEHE

T2: amphoterin (UniProt P09429 1-215)
T2 chain: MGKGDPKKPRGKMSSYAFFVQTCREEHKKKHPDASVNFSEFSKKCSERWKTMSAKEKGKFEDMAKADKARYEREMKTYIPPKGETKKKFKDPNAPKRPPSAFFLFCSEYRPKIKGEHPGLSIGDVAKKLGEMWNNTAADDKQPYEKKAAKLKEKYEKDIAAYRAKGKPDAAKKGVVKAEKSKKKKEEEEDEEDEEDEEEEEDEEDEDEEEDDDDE


What was measured:
Assay in all cases: saturation binding ELISA (immobilized ligand)
[1] = biological target: CML
[2] = biological target: T1, S100b
[3] = biological target: T2, amphoterin

Binder	Kd [1] [nM]	Kd [2] [nM]	Kd [3] [nM]
TTP4000 (Fc fusion, N-terminal residue glutamine (Q) or pyroglutamic acid (pE) or a mixture thereof; glycosylation sites at N2 and N288 (numbering of the processed protein); C-terminal residue may be cleaved off) QNITARIGEPLVLKCKGAPKKPPQRLEWKLNTGRTEAWKVLSPQGGGPWDSVARVLPNGSLFLPAVGIQDEGIFRCQAMNRNGKETKSNYRVRVYQIPGKPEIVDSASELTAGVPNKVGTCVSEGSYPAGTLSWHLDGKPLVPNEKGVSVKEQTRRHPETGLFTLQSELMVTPARGGDPRPTFSCSFSPGLPRHRALRTAPIQPRVWEPVPLEEVQLVVEPEGGAVAPPSVFLFPPKPKDTLMISRTPEVTCVVVDVSHEDPEVKFNWYVDGVEVHNAKTKPREEQYNSTYRVVSVLTVLHQDWLNGKEYKCKVSNKALPAPIEKTISKAKGQPREPQVYTLPPSRDELTKNQVSLTCLVKGFYPSDIAVEWESNGQPENNYKTTPPVLDSDGSFFLYSKLTVDKSRWQQGNVFSCSVMHEALHNHYTQKSLSLSPGK	75		
RAGE fusion protein TTP-4000 (Fc fusion, N-terminal residue glutamine (Q) or pyroglutamic acid (pE) or a mixture thereof; glycosylation sites at N2 and N288 (numbering of the processed protein); C-terminal residue may be cleaved off) QNITARIGEPLVLKCKGAPKKPPQRLEWKLNTGRTEAWKVLSPQGGGPWDSVARVLPNGSLFLPAVGIQDEGIFRCQAMNRNGKETKSNYRVRVYQIPGKPEIVDSASELTAGVPNKVGTCVSEGSYPAGTLSWHLDGKPLVPNEKGVSVKEQTRRHPETGLFTLQSELMVTPARGGDPRPTFSCSFSPGLPRHRALRTAPIQPRVWEPVPLEEVQLVVEPEGGAVAPPSVFLFPPKPKDTLMISRTPEVTCVVVDVSHEDPEVKFNWYVDGVEVHNAKTKPREEQYNSTYRVVSVLTVLHQDWLNGKEYKCKVSNKALPAPIEKTISKAKGQPREPQVYTLPPSRDELTKNQVSLTCLVKGFYPSDIAVEWESNGQPENNYKTTPPVLDSDGSFFLYSKLTVDKSRWQQGNVFSCSVMHEALHNHYTQKSLSLSPGK		77	40
